According to article PMC3875388:

Molecular target: AhR;ARNT (mouse (C57BL/6);mouse (C57BL/6), UniProt P30561;P53762 1-848;1-791, |)
Experiment: EMSA

Chain of AhR;ARNT (P30561 whole entry, chain 1 of 2): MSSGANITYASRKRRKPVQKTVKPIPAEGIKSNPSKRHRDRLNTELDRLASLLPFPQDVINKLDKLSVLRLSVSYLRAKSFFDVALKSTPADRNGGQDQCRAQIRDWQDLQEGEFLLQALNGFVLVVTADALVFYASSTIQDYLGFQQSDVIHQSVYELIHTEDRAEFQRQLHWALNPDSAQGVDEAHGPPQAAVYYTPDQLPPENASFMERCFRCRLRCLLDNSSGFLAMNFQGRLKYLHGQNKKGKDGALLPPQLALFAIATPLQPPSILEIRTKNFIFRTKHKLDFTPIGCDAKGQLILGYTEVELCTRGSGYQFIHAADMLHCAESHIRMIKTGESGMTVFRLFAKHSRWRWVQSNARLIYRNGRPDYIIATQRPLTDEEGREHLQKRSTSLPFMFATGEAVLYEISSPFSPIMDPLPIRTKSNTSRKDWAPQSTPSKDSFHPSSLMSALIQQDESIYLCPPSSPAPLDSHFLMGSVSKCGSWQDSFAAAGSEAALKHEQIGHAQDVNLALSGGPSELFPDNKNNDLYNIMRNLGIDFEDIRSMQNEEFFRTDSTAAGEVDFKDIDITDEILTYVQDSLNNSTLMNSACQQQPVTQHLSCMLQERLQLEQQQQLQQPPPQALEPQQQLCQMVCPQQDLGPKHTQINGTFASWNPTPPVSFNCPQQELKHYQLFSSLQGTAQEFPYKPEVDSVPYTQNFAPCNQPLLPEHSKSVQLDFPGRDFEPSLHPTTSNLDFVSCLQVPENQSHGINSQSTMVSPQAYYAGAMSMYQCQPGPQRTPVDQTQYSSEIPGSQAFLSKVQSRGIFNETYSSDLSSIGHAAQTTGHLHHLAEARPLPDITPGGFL
Chain of AhR;ARNT (P53762 whole entry, chain 2 of 2): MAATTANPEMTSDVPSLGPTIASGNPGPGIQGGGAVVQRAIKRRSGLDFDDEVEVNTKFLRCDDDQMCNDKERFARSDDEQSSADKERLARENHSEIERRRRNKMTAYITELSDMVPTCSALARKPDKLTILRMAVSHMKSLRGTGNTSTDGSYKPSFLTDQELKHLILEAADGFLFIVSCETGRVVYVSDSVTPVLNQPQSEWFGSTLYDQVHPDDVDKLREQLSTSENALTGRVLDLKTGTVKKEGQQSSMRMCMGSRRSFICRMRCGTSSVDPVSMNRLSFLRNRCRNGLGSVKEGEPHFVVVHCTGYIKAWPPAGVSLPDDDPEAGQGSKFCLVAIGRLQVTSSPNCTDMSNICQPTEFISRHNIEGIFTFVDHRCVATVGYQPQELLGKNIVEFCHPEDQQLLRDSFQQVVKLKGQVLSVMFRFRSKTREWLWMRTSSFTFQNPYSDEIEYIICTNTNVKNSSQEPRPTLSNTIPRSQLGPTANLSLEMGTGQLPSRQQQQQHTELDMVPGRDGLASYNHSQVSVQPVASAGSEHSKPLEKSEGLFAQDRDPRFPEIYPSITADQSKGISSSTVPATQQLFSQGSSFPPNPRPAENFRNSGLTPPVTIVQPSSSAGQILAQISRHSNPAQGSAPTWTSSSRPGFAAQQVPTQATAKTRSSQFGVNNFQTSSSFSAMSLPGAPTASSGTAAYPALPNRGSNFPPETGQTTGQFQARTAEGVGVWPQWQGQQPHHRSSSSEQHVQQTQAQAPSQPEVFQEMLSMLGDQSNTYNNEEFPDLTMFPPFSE

B1: Bax DRE-like (dsDNA)
DNA 1: GATCCAGAAAGCCGGGCGTGGTGGCGCACGCCTTTAATCCCA
DNA 2: GATCTGGGATTAAAGGCGTGCGCCACCACGCCCGGCTTTCTG
**Q.** Does B1 bind?
**A.** no binding
